Measured values: patent publication US20250346673A1 (DUALITY BIOLOGICS SUZHOU, published 2025)
One block for each binder: values may come before it.

Legend:
human BDCA2 [1] = target: T1, human BDCA2 (human, UniProt Q8WTT0 1-213); assay: FACS on CHOK1-hBDCA2 cells; EC50 table under the plot, unit from the x axis (nM) [continued) c.]
T1 construct: whole, on cells; also called hBDCA2; Blood dendritic cell antigen 2
T1 sequence (looked up): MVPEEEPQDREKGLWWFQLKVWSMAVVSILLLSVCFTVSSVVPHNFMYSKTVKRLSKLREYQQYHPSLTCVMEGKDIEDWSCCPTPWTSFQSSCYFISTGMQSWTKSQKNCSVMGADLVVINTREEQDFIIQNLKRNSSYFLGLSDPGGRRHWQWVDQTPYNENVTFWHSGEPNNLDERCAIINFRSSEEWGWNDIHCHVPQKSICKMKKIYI
Protocol: (§1) The cells were recovered and resuspended to 2×10⁶/mL with FACS buffer (PBS+2% FBS). The cells were added to 3799 cell plates (Corning) at 100 μL/well, and the supernatant was discarded after centrifugation at 300 g. The antibodies were serially diluted with FACS buffer (Id.), the diluted antibodies were added to centrifuged cells and the cells were resuspended. The cells were incubated at 4° C. for 1 h. The incubated cells were then centrifuged at […] for 5 min and washed twice with FACS buffer. 100 μL Donkey anti-Mouse IgG (H+L) Highly Cross-Adsorbed Secondary Antibody-Alexa Fluor 488 (Invitrogen, A21202; 1:1000) secondary antibody was added to the cells, which were washed twice with FACS buffer after incubation at 4° C. for 1 h, resuspended with PBS, analyzed with FACS (BD FACS CantoTM II) instrument. The curve was fitted with GraphPad Prism6, and EC₅₀ values were calculated.

cynomolgus BDCA2 = target: T2, cynomolgus BDCA2 (cynomolgus monkey, UniProt A0A2K5UWP4 1-212); assay: FACS on 293F-cynoBDCA2 cells; EC50 table under the plot, unit from the x axis (nM) [continued) c.]
T2 construct: whole, on cells; also called Cyno BDCA2; cynoBDCA2
T2 sequence: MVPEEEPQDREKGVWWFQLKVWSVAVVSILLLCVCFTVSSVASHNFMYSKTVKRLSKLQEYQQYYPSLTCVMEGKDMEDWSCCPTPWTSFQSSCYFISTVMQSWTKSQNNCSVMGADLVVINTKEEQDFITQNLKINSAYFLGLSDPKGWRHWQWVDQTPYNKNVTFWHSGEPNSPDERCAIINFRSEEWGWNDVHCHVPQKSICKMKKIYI
Protocol: as §1

human BDCA2 [2] = target: T1, human BDCA2; assay: FACS, CHOK1-humanBDCA2 cells
Protocol: (§2) The cells were recovered and resuspended to 2×10⁶/mL with FACS buffer (PBS+2% FBS). The resuspended cells were added to 3799 cell plates at 100 μL/well, and the supernatant was discarded after centrifugation at 300 g. […] The cells were incubated at 4° C. for 1 h. The incubated cells were centrifuged at […] for 5 min and washed twice with FACS buffer. 100 μL Goat anti-Human IgG (H+L) Cross-Adsorbed Secondary Antibody, Alexa Fluor 488 (Sigma, A11013; 1:1000) secondary antibody was added, washed twice with FACS buffer after incubation at 4° C. for 1 h. The cells were resuspended with PBS, then the fluorescence signal of antibodies bound to cell surface was analyzed with FACS (BD FACS CantoTM II) instrument and curves were fitted with GraphPad Prism6 to calculate EC₅₀ values for antibodies binding to BDCA2 antigen.

human BDCA2 [3] = target: T1, human BDCA2; assay: cell-based or functional assay
human BDCA2 [4] = target: T1, human BDCA2; assay: FACS on CHOK1-hBDCA2 cells; EC50 table under the plot, unit from the x axis (nM) [continued) d.]
Protocol: as §1

human BDCA2 [5] = target: T1, human BDCA2; assay: FACS on CHOK1-hBDCA2 cells; EC50 table under the plot, unit from the x axis (nM) [continued) e.]
Protocol: as §1

Recombinant Human BDCA2 = target: T3, Recombinant Human BDCA2 (human, UniProt Q8WTT0 45-213, limits assumed); assay: SPR (BIAcore), antibody captured by anti-human IgG (Fc), hBDCA2 as analyte, 1:1 model
T3 construct: also called hBDCA2 (SPR analyte); human BDCA2 antigen
T3 sequence (looked up): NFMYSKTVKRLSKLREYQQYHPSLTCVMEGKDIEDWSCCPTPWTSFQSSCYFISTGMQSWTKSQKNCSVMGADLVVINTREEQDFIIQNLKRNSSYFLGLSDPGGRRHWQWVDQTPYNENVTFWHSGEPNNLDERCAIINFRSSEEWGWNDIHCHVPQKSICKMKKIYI
Protocol: Then 1 M ethanolamine was injected at 10 μL/min flow rate for 420 seconds, and the excess active carboxyl groups on chip were blocked. The humanized antibodies were injected into a detection channel flow cell at flow rate of 10 μL/min for 60 s for capture after diluting to 1 μg/mL using running buffer. […] The sample hBDCA2 to be tested of each concentration gradient was injected into the detection channel at 30 μL/min flow rate, two samples at 0 concentration were used to remove background signal. The binding and dissociation times between antigen and antibody were 180 and 400 sec, respectively. An analysis of data was performed using Biacore Insight Evaluation Software (Version 2.0. 15.12933). A 1:1 binding model was selected for curve fitting and kinetic parameters were calculated after subtraction of signal of the reference channel (flow cell 1) and at 0 concentration.

human BDCA2 [6] = target: T1, human BDCA2; assay: FACS on CHOK1-hBDCA2 cells; EC50 table under the plot, unit from the x axis (nM)
Protocol: (§3) The cells were recovered and resuspended to 2×10⁶/mL with FACS buffer (PBS+2% FBS). The cells were added to 3799 cell plates (Corning) at 100 μL/well, and the supernatant was discarded after centrifugation at 300 g. The antibodies were serially diluted with FACS buffer (Id.), the diluted antibodies were added to centrifuged cells and the cells were resuspended. The cells were incubated at 4° C. for 1 h. The incubated cells were centrifuged at 300 g for 5 min and washed twice with FACS buffer. 100 μL […] anti-Human IgG (H+L) Cross-Adsorbed Secondary Antibody-Alexa Fluor 488 (Sigma, A11013; 1:1000) secondary antibody was added, washed twice with FACS buffer after incubation at 4° C. for 1 h, resuspended with PBS, analyzed with FACS (BD FACS CantoTM II) instrument and curve fitted with GraphPad Prism6, and EC₅₀ values were calculated.

human BDCA2 [7] = target: T1, human BDCA2; assay: FACS, CHOK1-humanBDCA2 cells; remark: listed apart in the source
Protocol: as §2

human BDCA2 [8] = target: T1, human BDCA2; assay: FACS on CHOK1-hBDCA2 cells; EC50 table under the plot, unit from the x axis (nM); remark: listed apart in the source
Protocol: as §3

human BDCA2 [9] = target: T1, human BDCA2; assay: FACS on CHOK1-hBDCA2 cells; EC50 table beside the plot, unit from the x axis (nM) [continued) c.]
Protocol: as §3

human BDCA2 [10] = target: T1, human BDCA2; assay: FACS on CHOK1-hBDCA2 cells; EC50 table under the plot, unit from the x axis (nM); remark: listed apart in the source
Protocol: as §1

human BDCA2 [11] = target: T1, human BDCA2; assay: as above; remark: listed apart in the source

EC50 (human BDCA2 [1]): 1.33 nM | EC50 (cynomolgus BDCA2): 1.78 nM
B1: mAb016 (antibody, V domains shown)
VH: QVQLKQSGPGLVQPSQSLSITCTVSGFSLTSYGVHWVRQSPGKGLEWLGVIWSGESTDYDAAFISRLSISKDNSKSQVFFRMNSLQADDSAIYYCARRRSHYYGYVMDYWGQGTSVTVSS
VL: DIVLTQSPASLAVSLGQRATISCKASQSVDYDGVGYLNWYQHKPGQPPKLLIYAASNLESGIPARFSGSGSGTDFTLNIHPVEEEDAATYYCQQSNEDPPTFGSGTKLEIK
notes: Mouse hybridoma antibody

EC50 (human BDCA2 [2]): 3.1 nM | EC50 (human BDCA2 [1]): 2.48 nM | EC50 (nM), inhibition of CpG-A stimulated IFNα release from human PBMC (human BDCA2 [3]): 0.04 nM | EC50 (human BDCA2 [4]): 1.09 nM | EC50 (human BDCA2 [5]): 1.91 nM | Kd (Recombinant Human BDCA2): 1.07 nM | EC50 (human BDCA2 [6]): 3.45 nM | EC50 (human BDCA2 [7]): 1.3 nM | EC50 (human BDCA2 [8]): 1.91 nM | EC50 (human BDCA2 [9]): 2 nM | EC50 (human BDCA2 [10]): 2.17 nM | EC50 (human BDCA2 [11]): 2.17 nM
B2: BIIB059 (antibody, V domains shown)
VH: DVQLVESGGGLVKPGGSLRLSCAASGFTFSTYTMSWVRQAPGKGLEWVATISPGDSFGYYYPDSVQGRFTISRDNAKNSLYLQMNSLRAEDTAVYYCTRDIYYNYGAWFAYWGQGTLVTVSS
VL: DIQLTQSPSSLSASVGDRVTITCKASQSVDYDGDSYMNWYQQKPGKAPKLLIYAASTLESGVPSRFSGSGSGTDFTLTISSLQPEDFATYYCQQANEDPRTFGQGTKVEIKR
